Positions count from the first letter of the chain named. Numbers in names are those of the source.
T1: recombinant Factor VIII (CSL627, rVIII-SingleChain) (Homo sapiens (Human), UniProt P00451 20-2351)
T1 construct: also called FVIII
T1 sequence: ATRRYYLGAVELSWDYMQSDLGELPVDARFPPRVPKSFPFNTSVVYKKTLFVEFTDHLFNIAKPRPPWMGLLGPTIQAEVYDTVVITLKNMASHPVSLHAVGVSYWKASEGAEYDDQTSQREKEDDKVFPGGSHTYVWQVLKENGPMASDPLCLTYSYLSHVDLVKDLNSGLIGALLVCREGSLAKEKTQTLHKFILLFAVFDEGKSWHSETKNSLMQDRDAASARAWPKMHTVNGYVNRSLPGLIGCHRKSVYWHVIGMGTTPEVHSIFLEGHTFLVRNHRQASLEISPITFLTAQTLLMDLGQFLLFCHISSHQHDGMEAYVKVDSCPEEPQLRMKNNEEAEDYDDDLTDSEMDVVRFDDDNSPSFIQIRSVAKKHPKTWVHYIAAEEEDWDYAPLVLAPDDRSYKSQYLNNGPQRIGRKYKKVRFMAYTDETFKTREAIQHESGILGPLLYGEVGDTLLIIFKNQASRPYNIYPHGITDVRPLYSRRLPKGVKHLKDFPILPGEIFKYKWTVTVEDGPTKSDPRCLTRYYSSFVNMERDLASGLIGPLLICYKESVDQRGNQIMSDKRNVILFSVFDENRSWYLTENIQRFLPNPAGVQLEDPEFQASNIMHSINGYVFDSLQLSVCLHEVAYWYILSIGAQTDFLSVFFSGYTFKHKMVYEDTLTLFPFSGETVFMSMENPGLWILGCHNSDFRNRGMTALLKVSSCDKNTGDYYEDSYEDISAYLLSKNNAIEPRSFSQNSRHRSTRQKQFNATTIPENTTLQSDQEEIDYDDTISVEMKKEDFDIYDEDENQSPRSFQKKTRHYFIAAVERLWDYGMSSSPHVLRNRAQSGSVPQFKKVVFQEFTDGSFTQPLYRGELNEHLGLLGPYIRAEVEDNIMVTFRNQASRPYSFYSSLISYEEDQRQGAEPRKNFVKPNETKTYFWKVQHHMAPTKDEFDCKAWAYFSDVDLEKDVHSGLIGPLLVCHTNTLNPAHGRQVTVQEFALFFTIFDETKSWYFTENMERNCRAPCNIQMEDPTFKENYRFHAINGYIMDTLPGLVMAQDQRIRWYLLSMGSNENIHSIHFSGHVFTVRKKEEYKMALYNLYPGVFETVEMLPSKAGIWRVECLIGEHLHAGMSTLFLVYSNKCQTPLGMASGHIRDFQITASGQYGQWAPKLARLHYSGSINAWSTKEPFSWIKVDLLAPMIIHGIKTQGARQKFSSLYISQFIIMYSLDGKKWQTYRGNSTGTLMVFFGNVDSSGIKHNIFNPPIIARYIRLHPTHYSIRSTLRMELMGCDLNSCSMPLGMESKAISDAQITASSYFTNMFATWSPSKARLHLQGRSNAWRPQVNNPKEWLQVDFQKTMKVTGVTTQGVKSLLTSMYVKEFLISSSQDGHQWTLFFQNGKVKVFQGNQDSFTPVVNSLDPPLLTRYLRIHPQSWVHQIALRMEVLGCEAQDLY

B1: Hu-vWF[764-1270]-8His S764P-L765T-S766I (other)
chain: PTICRPPMVKLVCPADNLRAEGLECTKTCQNYDLECMSMGCVSGCLCPPGMVRHENRCVALERCPCFHQGKEYAPGETVKIGCNTCVCRDRKWNCTDHVCDATCSTIGMAHYLTFDGLKYLFPGECQYVLVQDYCGSNPGTFRILVGNKGCSHPSVKCKKRVTILVEGGEIELFDGEVNVKRPMKDETHFEVVESGRYIILLLGKALSVVWDRHLSISVVLKQTYQEKVCGLCGNFDGIQNNDLTSSNLQVEEDPVDFGNSWKVSSQCADTRKVPLDSSPATCHNNIMKQTMVDSSCRILTSDVFQDCNKLVDPEPYLDVCIYDTCSCESIGDCACFCDTIAAYAHVCAQHGKVVTWRTATLCPQSCEERNLRENGYECEWRYNSCAPACQVTCQHPEPLACPVQCVEGCHAHCPPGKILDELLQTCVDPEDCPVCEVAGRRFASGKKVTLNPSDPEHCQICHCDVVNLTCEACQEPGGLVVPPTDAPVSPTTLYVEDISEPPLHDFHHHHHHHH
B2: Hu-vWF[764-1270]-8His S764P-L765W-S766I (other)
chain: B1 chain with T2W
B3: Hu-vWF[764-1270]-8His S766W-L809M (other)
chain: B1 chain with P1S, T2L, I3W, L46M
B4: Hu-vWF[764-1270]-8His S766W-L809N (other)
chain: B1 chain with P1S, T2L, I3W, L46N
B5: Hu-vWF[764-1270]-8His S766W-S806M (other)
chain: B1 chain with P1S, T2L, I3W, S43M
B6: Hu-vWF[764-1270]-8His S766W-L809D (other)
chain: B1 chain with P1S, T2L, I3W, L46D
B7: Hu-vWF[764-1270]-8His S766W-L809F (other)
chain: B1 chain with P1S, T2L, I3W, L46F
B8: Hu-vWF[764-1270]-8His S766W-S806A (other)
chain: B1 chain with P1S, T2L, I3W, S43A
B9: Hu-vWF[764-1270]-8His S766W-L809V (other)
chain: B1 chain with P1S, T2L, I3W, L46V
B10: Hu-vWF[764-1270]-8His S766W-L809T (other)
chain: B1 chain with P1S, T2L, I3W, L46T
B11: Hu-vWF[764-1270]-8His S766W-S806I (other)
chain: B1 chain with P1S, T2L, I3W, S43I
B12: Hu-vWF[764-1270]-8His S766W-L809Q (other)
chain: B1 chain with P1S, T2L, I3W, L46Q
B13: Hu-vWF[764-1270]-8His S766W-L809H (other)
chain: B1 chain with P1S, T2L, I3W, L46H
B14: Hu-vWF[764-1270]-8His S766W-S806L (other)
chain: B1 chain with P1S, T2L, I3W, S43L
B15: Hu-vWF[764-1270]-8His S766W-L809I (other)
chain: B1 chain with P1S, T2L, I3W, L46I
B16: Hu-vWF[764-1270]-8His S766W-L809S (other)
chain: B1 chain with P1S, T2L, I3W, L46S
B17: Hu-vWF[764-1270]-8His S766W-L809W (other)
chain: B1 chain with P1S, T2L, I3W, L46W
B18: Hu-vWF[764-1270]-8His S766W-S806P (other)
chain: B1 chain with P1S, T2L, I3W, S43P
B19: Hu-vWF[764-1270]-8His S766W-L809G (other)
chain: B1 chain with P1S, T2L, I3W, L46G
B20: Hu-vWF[764-1270]-8His S766W-L809P (other)
chain: B1 chain with P1S, T2L, I3W, L46P
B21: Hu-vWF[764-1270]-8His S766W-L809Y (other)
chain: B1 chain with P1S, T2L, I3W, L46Y
B22: Hu-vWF[764-1270]-8His S766W-S806E (other)
chain: B1 chain with P1S, T2L, I3W, S43E
B23: Hu-vWF[764-1270]-8His S766W-L809K (other)
chain: B1 chain with P1S, T2L, I3W, L46K
B24: Hu-vWF[764-1270]-8His S766W-S806H (other)
chain: B1 chain with P1S, T2L, I3W, S43H
B25: Hu-vWF[764-1270]-8His S764P-L765Y-S766I (other)
chain: B1 chain with T2Y
B26: Hu-vWF[764-1270]-8His S766W-L809A (other)
chain: B1 chain with P1S, T2L, I3W, L46A
B27: Hu-vWF[764-1270]-8His S766W-L809R (other)
chain: B1 chain with P1S, T2L, I3W, L46R
B28: Hu-vWF[764-1270]-8His S766W-S806N (other)
chain: B1 chain with P1S, T2L, I3W, S43N
B29: Hu-vWF[764-1270]-8His S766W-L809E (other)
chain: B1 chain with P1S, T2L, I3W, L46E
B30: Hu-vWF[764-1270]-8His S764P-L765V-S766I (other)
chain: B1 chain with T2V
B31: Hu-vWF[764-1270]-8His S766W-S806D (other)
chain: B1 chain with P1S, T2L, I3W, S43D
B32: Hu-vWF[764-1270]-8His S766W-S806F (other)
chain: B1 chain with P1S, T2L, I3W, S43F
B33: Hu-vWF[764-1270]-8His S766W-S806G (other)
chain: B1 chain with P1S, T2L, I3W, S43G

These binders were tested against T1, recombinant Factor VIII (CSL627, …) (assay: SPR, anti-His capture, FVIII injected, 37 C).
Method: Binding kinetics were investigated by surface plasmon resonance using a Biacore 4000 biosensor at 37° C. Each mutant was captured from cell culture medium to a density of 40-150 RU on a CM-5 sensor chip pre-immobilised with anti-His antibody (14,000 RU). In an initial screening study, FVIII was injected over the captured mutants for 5 minutes at 1 nM and dissociation monitored for 5 minutes.
All sensorgrams were double referenced by subtraction of signals from a reference spot (containing only immobilised anti His antibody) and from a blank injection. Binding kinetics were determined by fitting the double referenced sensorgrams to a 1:1 kinetic model.

Kd [nM] | koff [s⁻¹] | kon [M⁻¹ s⁻¹] | binding result | Binder
0.0287 | 0.00331 | 1.15e+08 | – | B1
0.132 | 0.000146 | 1.11e+06 | – | B2
0.117 | 0.000581 | 4.99e+06 | – | B3
0.369 | 0.00227 | 6.15e+06 | – | B4
0.425 | 0.000872 | 2.05e+06 | – | B5
0.425 | 0.0019 | 4.46e+06 | – | B6
0.228 | 0.000744 | 3.26e+06 | – | B7
0.0778 | 0.000376 | 4.84e+06 | – | B8
0.122 | 0.00094 | 7.7e+06 | – | B9
0.161 | 0.00141 | 8.72e+06 | – | B10
0.283 | 0.000447 | 1.58e+06 | – | B11
0.212 | 0.00113 | 5.33e+06 | – | B12
0.397 | 0.00114 | 2.87e+06 | – | B13
– | – | – | no binding | B14
0.103 | 0.000541 | 5.23e+06 | – | B15
0.22 | 0.00144 | 6.54e+06 | – | B16
0.648 | 0.00312 | 4.81e+06 | – | B17

Kd [nM] | koff [s⁻¹] | kon [M⁻¹ s⁻¹] | binding result | Binder
0.133 | 0.000566 | 4.26e+06 | – | B18
0.363 | 0.00226 | 6.21e+06 | – | B19
– | – | – | no binding | B20
0.5 | 0.00339 | 6.77e+06 | – | B21
0.217 | 0.00129 | 5.93e+06 | – | B22
0.219 | 0.00153 | 7e+06 | – | B23
0.093 | 0.000828 | 8.9e+06 | – | B24
0.0367 | 0.0019 | 5.17e+07 | – | B25
0.258 | 0.00115 | 4.45e+06 | – | B26
0.352 | 0.00213 | 6.07e+06 | – | B27
0.152 | 0.000585 | 3.84e+06 | – | B28
0.265 | 0.00155 | 5.84e+06 | – | B29
0.00207 | 0.000116 | 5.62e+07 | – | B30
0.164 | 0.000688 | 4.2e+06 | – | B31
– | – | – | no binding | B32
0.245 | 0.00134 | 5.46e+06 | – | B33

— patent US20190015483A1 (CSL BEHRING RECOMBINANT FACILITY, published 2019)
